2 molecules from PMC6745792, “A novel biotinylated nanobody-based blocking ELISA for the rapid and sensitive clinical detection of porcine epidemic diarrhea virus” (Journal of Nanobiotechnology, 2019) can be followed below.

Experiment [1] has as its target T1, PEDV N protein (recombinant nucleocapsid protein of porcine epidemic diarrhea virus) (Porcine epidemic diarrhea virus, strain …, UniProt Q07499).
T1 construct: also called PEDV N antigen; N-His-tagged recombinant protein; source: recombinant, purified ('highly pure')
The experiment in a line: SPR; Biacore 3000; purified PEDV N protein (5 µg/ml) amine-coupled to a CM5 chip; Nb1, Nb2, Nb3 flowed at 3 µg/ml each; HBS-EP (10 mM HEPES pH 7.4, 150 mM NaCl, 3 mM EDTA, 0.005% P20), room temperature; 1:1 Langmuir model. The conditions noted are these: both partners purified. For orientation: SPR reads the build-up and loss of mass on a sensor chip optically.

For experiment [2], the target named is T2, PEDV N protein (recombinant nucleocapsid protein of porcine epidemic diarrhea virus) (Porcine epidemic diarrhea virus, strain …, UniProt Q07499).
T2 construct: also called N-His recombinant protein; N-His-tagged recombinant protein; source: recombinant, purified
The experiment in a line: SPR; Biacore 3000; purified PEDV N protein (5 µg/ml) amine-coupled to a CM5 chip; Nb1, Nb2 and Nb3 each flowed over at 3 µg/ml; HBS-EP (10 mM HEPES pH 7.4, 150 mM NaCl, 3 mM EDTA, 0.005% P20); room temperature; 1:1 Langmuir model.

Usually kon stands for a measure of how fast the partners come together. One may read the koff as the rate constant with which the complex falls apart.

B1: Nb1 (anti-PEDV N protein nanobody) (VHH)
VHH: QVQLQESGGGSVQSGGSLRLSCAVSGYTYSGLCMGWFRQAPGREREGVATIDTDGYTSYTDSVKGRFTISRDNAKNTLLLQMNSLQPEDTAMYYCAADPRTAIYCSTSRSAKWYNHWGQGTQVTVSS
As for B1, in experiment [1], the on-rate constant (kon) came out at 197000 M⁻¹ s⁻¹.

B2: Nb1 (VHH)
VHH: B1 VHH
notes: VHH from a Bactrian camel immunised with PEDV N protein, selected by phage display
Consider B2, for which the off-rate constant (koff) in experiment [2] was determined as 0.00206 s⁻¹.
